Reference: paper PMC5484120 (Marine Drugs, 2017)
Where no end group is shown, it is not given here. The star is where a group is joined. Cam = NC(=O)C*

Assays:
[1] = molecular target: O-conotoxin GeXXVIIA, native form (disulfide-linked homodimer) (Conus generalis); assay: mass spectrometry before and after reduction with DTT
[2] = molecular target: human α9α10 nicotinic acetylcholine receptor (human) (UniProt Q9UGM1)
[3] = molecular target: rodent α1β1εδ nicotinic acetylcholine receptor (rat α1, β1, δ; mouse ε) (rat | mouse) (UniProt P25108)
α9α10 nAChR = settings: cited from earlier work
[4] = test system: rat models of neuropathic pain; settings: in vivo; cited from earlier work
N-type Ca^2+ channel = settings: cited from earlier work

Which stoichiometry N [1] does the source give for “O-conotoxin GeXXVIIA, native form (disulfide-linked homodimer) (peptide)” here?
The stoichiometry N was 2.

For “GeXXVIIA-L-Nter (N-terminal fragment of GeXXVIIA-L after Asp-N digestion) (peptide)”, which IC50 of inhibition of ACh-evoked current of the receptor in Xenopus oocytes [2] is on record?
Its IC50 of inhibition of ACh-evoked current of the receptor in Xenopus oocytes is 222 nM.

What about the IC50 of inhibition of ACh-evoked current of the receptor in Xenopus oocytes [3] of the same molecule?
The IC50 of inhibition of ACh-evoked current of the receptor in Xenopus oocytes was 2190 nM.

For Vc1.1, which IC50 (α9α10 nAChR) is on record?
Its IC50 is 19 nM.

And the “pain relief in rat models of neuropathic pain” value [4]?
Its value is “long lasting relief in rat models of neuropathic pain”.

With ω-conotoxin MVIIA as the molecule, how does the “N-type Ca2+ channel inhibition (in words)” value (N-type Ca^2+ channel) read?
Its value is “selective N-type Ca^2+ channel inhibitor”.

Which IC50 of inhibition of ACh-evoked current of the receptor in Xenopus oocytes [3] does the source give for ALMSTGTNYRLLKTC(Cam)RGSGRYC(Cam)RSPYDC(Cam)RRRYC(Cam)RRISDAC(Cam)V [GeXXVIIA-L (disulfide-free linear peptide of GeXXVIIA, Cys residues alkylated with iodoacetamide)] here?
Its IC50 of inhibition of ACh-evoked current of the receptor in Xenopus oocytes is 774 nM.
